t½ half life data for 20 molecules are collected here from patent publication US20090280138A1 (OXFORD BIOMEDICA UK, published 2009).

Assay [1] concerns the target T1, MHC class I molecule HLA-B*0702 (iTopia plate-bound monomer) (biotin (bound to streptavidin-coated plate)).
T1 construct: Commercial iTopia system; also called B7
As to the kind of experiment: iTopia off-rate assay, 37 C; fit R^2 0.11. On the procedure:
(§1) The 9 mers were tested for Peptide Binding, Off Rate and Affinity using iTopia Epitope Discovery System in accordance with the manufacturer's instructions. Briefly, 96 well microtitre plates coated with MHC molecules representing different MHC alleles are used to identify candidate peptides. […] Determinations are performed in duplicate using an ELISA plate reader and included allele specific positive controls.
(§2) A one-phase exponential decay curve, with a plateau given equal to 0, was generated using GraphPad Prism® software, which calculated the t1/2 and goodness-of-fit, as measured by r², for each peptide.

Assay [2] concerns the target T2, MHC class I molecule HLA-A*0201 (iTopia plate-bound monomer) (biotin (bound to streptavidin-coated plate)).
T2 construct: also called A2
The experiment in a line: iTopia off-rate assay, 37 C; fit R^2 0.49. On the procedure: as §1, §2

The target of assay [3] is T2, MHC class I molecule HLA-A*0201 (iTopia …). As to the kind of experiment: iTopia off-rate assay, 37 C; fit R^2 0.2. On the procedure:
as §1, §2

Assay [4] deals with T3, MHC class I molecule HLA-A*0101 (iTopia plate-bound monomer) (biotin (bound to streptavidin-coated plate)).
T3 construct: also called A1
As to the kind of experiment: iTopia off-rate assay, 37 C; fit R^2 0.12. On the procedure:
as §1, §2

Assay [5] has as its target T1, MHC class I molecule HLA-B*0702 (iTopia …). As to the kind of experiment: iTopia off-rate assay, 37 C; fit R^2 0.73. On the procedure:
as §1, §2

Assay [6] has as its target T4, MHC class I molecule HLA-A*0301 (iTopia plate-bound monomer) (biotin (bound to streptavidin-coated plate)).
T4 construct: also called A3
The experiment in a line: iTopia off-rate assay, 37 C; fit R^2 0.99. As for the experimental part:
as §1, §2

For assay [7], the target named is T2, MHC class I molecule HLA-A*0201 (iTopia …). As to the kind of experiment: iTopia off-rate assay, 37 C; fit R^2 0.59. On the procedure: as §1, §2
In assay [8] the target is T1, MHC class I molecule HLA-B*0702 (iTopia …). The experiment in a line: iTopia off-rate assay, 37 C; fit R^2 0.75. On the procedure:
as §1, §2

Assay [9] addresses T4, MHC class I molecule HLA-A*0301 (iTopia …). The experiment in a line: iTopia off-rate assay, 37 C; fit R^2 0.94. As for the experimental part: as §1, §2
The target of assay [10] is T2, MHC class I molecule HLA-A*0201 (iTopia …). The experiment in a line: iTopia off-rate assay, 37 C; fit R^2 0.46. On the procedure: as §1, §2
The target of assay [11] is T1, MHC class I molecule HLA-B*0702 (iTopia …). As to the kind of experiment: iTopia off-rate assay, 37 C; fit R^2 0.88. On the procedure: as §1, §2
Assay [12] has as its target T2, MHC class I molecule HLA-A*0201 (iTopia …). As to the kind of experiment: iTopia off-rate assay, 37 C; fit R^2 0.89. As for the experimental part:
as §1, §2

Assay [13] shares this target. As to the kind of experiment: iTopia off-rate assay, 37 C; fit R^2 0.81. On the procedure: as §1, §2
Assay [14] deals with T1, MHC class I molecule HLA-B*0702 (iTopia …). As to the kind of experiment: iTopia off-rate assay, 37 C; fit R^2 0.81. On the procedure:
as §1, §2

Assay [15] addresses T3, MHC class I molecule HLA-A*0101 (iTopia …). As to the kind of experiment: iTopia off-rate assay, 37 C; fit R^2 0.15. On the procedure:
as §1, §2

For assay [16], the target named is T1, MHC class I molecule HLA-B*0702 (iTopia …). The experiment in a line: iTopia off-rate assay, 37 C; fit R^2 0.86. As for the experimental part: as §1, §2
The target of assay [17] is T4, MHC class I molecule HLA-A*0301 (iTopia …). The experiment in a line: iTopia off-rate assay, 37 C; fit R^2 0.96. On the procedure:
as §1, §2

Assay [18] addresses T2, MHC class I molecule HLA-A*0201 (iTopia …). As to the kind of experiment: iTopia off-rate assay, 37 C; fit R^2 0.97. As for the experimental part: as §1, §2
The target is the same in assay [19]. As to the kind of experiment: iTopia off-rate assay, 37 C; fit R^2 0.76. As for the experimental part:
as §1, §2

The target of assay [20] is T1, MHC class I molecule HLA-B*0702 (iTopia …). As to the kind of experiment: iTopia off-rate assay, 37 C; fit R^2 0.38. On the procedure:
as §1, §2

Assay [21] has as its target T2, MHC class I molecule HLA-A*0201 (iTopia …). The experiment in a line: iTopia off-rate assay, 37 C; fit R^2 0.75. On the procedure: as §1, §2
Assay [22] deals with T1, MHC class I molecule HLA-B*0702 (iTopia …). The experiment in a line: iTopia off-rate assay, 37 C; fit R^2 0.91. On the procedure:
as §1, §2

Assay [23] deals with T2, MHC class I molecule HLA-A*0201 (iTopia …). As to the kind of experiment: iTopia off-rate assay, 37 C; fit R^2 0.98. As for the experimental part:
as §1, §2

The target of assay [24] is T3, MHC class I molecule HLA-A*0101 (iTopia …). As to the kind of experiment: iTopia off-rate assay, 37 C; fit R^2 0.25. As for the experimental part: as §1, §2
In assay [25] the target is T2, MHC class I molecule HLA-A*0201 (iTopia …). The experiment in a line: iTopia off-rate assay, 37 C; fit R^2 0.33. As for the experimental part:
as §1, §2

Assay [26] has as its target T1, MHC class I molecule HLA-B*0702 (iTopia …). The experiment in a line: iTopia off-rate assay, 37 C; fit R^2 0.42. As for the experimental part: as §1, §2
For assay [27], the target named is T2, MHC class I molecule HLA-A*0201 (iTopia …). The experiment in a line: iTopia off-rate assay, 37 C; fit R^2 0.77. As for the experimental part:
as §1, §2

Assay [28] concerns the target T4, MHC class I molecule HLA-A*0301 (iTopia …). The experiment in a line: iTopia off-rate assay, 37 C; fit R^2 0.97. On the procedure: as §1, §2
In assay [29] the target is T1, MHC class I molecule HLA-B*0702 (iTopia …). As to the kind of experiment: iTopia off-rate assay, 37 C; fit R^2 0.26. As for the experimental part: as §1, §2
Assay [30] deals with T2, MHC class I molecule HLA-A*0201 (iTopia …). The experiment in a line: iTopia off-rate assay, 37 C; fit R^2 0.58. On the procedure: as §1, §2
In assay [31] the target is T1, MHC class I molecule HLA-B*0702 (iTopia …). As to the kind of experiment: iTopia off-rate assay, 37 C; fit R^2 0.95. In a few lines: (§3)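 9-mer peptides were tested on microtitre plates coated with MHC molecules, following the manufacturer's protocol. Signal was read in duplicate on an ELISA plate reader with allele-specific positive controls. Half-life and r² came from a one-phase exponential decay fit with the plateau fixed at 0.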

Assay [32] has the same target. The experiment in a line: iTopia off-rate assay, 37 C; fit R^2 0.67. On the procedure: as §1, §2
Assay [33] concerns the target T2, MHC class I molecule HLA-A*0201 (iTopia …). The experiment in a line: iTopia off-rate assay, 37 C; fit R^2 0.87. In a few lines: as §3
Assay [34] addresses T1, MHC class I molecule HLA-B*0702 (iTopia …). As to the kind of experiment: iTopia off-rate assay, 37 C; fit R^2 0.87. In a few lines: as §3
Assay [35] shares this target. As to the kind of experiment: iTopia off-rate assay, 37 C; fit R^2 0.1. As for the experimental part: as §1, §2
Assay [36] has as its target T2, MHC class I molecule HLA-A*0201 (iTopia …). As to the kind of experiment: iTopia off-rate assay, 37 C; fit R^2 0.79. As for the experimental part:
as §1, §2

Assay [37] deals with T4, MHC class I molecule HLA-A*0301 (iTopia …). As to the kind of experiment: iTopia off-rate assay, 37 C; fit R^2 0.01. On the procedure: as §1, §2
In assay [38] the target is T1, MHC class I molecule HLA-B*0702 (iTopia …). As to the kind of experiment: iTopia off-rate assay, 37 C; fit R^2 0. On the procedure:
as §1, §2

In assay [39] the target is T4, MHC class I molecule HLA-A*0301 (iTopia …). As to the kind of experiment: iTopia off-rate assay, 37 C; fit R^2 0.61. On the procedure:
as §1, §2

The target in assay [40] is T1, MHC class I molecule HLA-B*0702 (iTopia …). As to the kind of experiment: iTopia off-rate assay, 37 C; fit R^2 0.68. As for the experimental part: as §1, §2
The target in assay [41] is T2, MHC class I molecule HLA-A*0201 (iTopia …). The experiment in a line: iTopia off-rate assay, 37 C; fit R^2 0.95. The method in brief: as §3

B1: 5T4 9-mer peptide 58 PPLAELAAL (peptide)
peptide: PPLAELAAL
notes: also called Peptide No 58
For B1, the t½ half life turned out to be 3 h in [1] and 4.6 h in [2].

B2: 5T4 9-mer peptide 125 LTYVSFRNL (peptide)
peptide: LTYVSFRNL
Turning to B2, the t½ half life was found to be 8.1 h in [3], 3.9 h in [4], 6 h in assay [5] and 0.7 h in [6].

B3: 5T4 9-mer peptide 65 RLDEVRAGA (peptide)
peptide: RLDEVRAGA
notes: also called Peptide No 65
With B3, the t½ half life was determined as 9.7 h in assay [7], 0.2 h in assay [8] and 0.2 h in assay [9].

B4: 5T4 9-mer peptide 90 ILNHIVPPE (peptide)
peptide: ILNHIVPPE
notes: also called Peptide No 90
B4 yielded a t½ half life in [10] of 13 h.

B5: 5T4 9-mer peptide 71 LPSLRQLDL (peptide)
peptide: LPSLRQLDL
notes: also called Peptide No 71
B5: the t½ half life is 3.1 h in assay [11] and 1.4 h in [12].

B6: 5T4 9-mer peptide 117 LPSLRHLDL (peptide)
peptide: LPSLRHLDL
notes: also called Peptide No 117
For B6, the values for the t½ half life in assay [13] and in [14] were 0.7 h and 3 h, respectively.

B7: 5T4 9-mer peptide 109 LASNHFLYL (peptide)
peptide: LASNHFLYL
For B7, the t½ half life in [15] came to 3 h; in assay [16], 0.2 h; in [17], 3.6 h; in assay [18], 1.3 h.

B8: 5T4 9-mer peptide 120 LDLSNNSLV (peptide)
peptide: LDLSNNSLV
notes: also called Peptide No 120
In assay [19], B8 registered a t½ half life of 3.4 h.

B9: 5T4 9-mer peptide 121 LSNNSLVSL (peptide)
peptide: LSNNSLVSL
On to B9, for which the t½ half life in [20] was 4.1 h; in assay [21], 0.8 h.

B10: 5T4 9-mer peptide 55 GAFARRPPL (peptide)
peptide: GAFARRPPL
notes: also called Peptide No 55
Consider B10, for which the t½ half life in assay [22] was 1.3 h; in [23] it was 1.9 h.

B11: 5T4 9-mer peptide 59 LAELAALNL (peptide)
peptide: LAELAALNL
notes: also called Peptide No 59
As to B11, the t½ half life was found to be 2.5 h in assay [24], 13.1 h in assay [25] and 3.2 h in [26].

B12: 5T4 9-mer peptide 115 VLAQLPSLR (peptide)
peptide: VLAQLPSLR
Turning to B12, the t½ half life stood at 0.6 h in assay [27] and 0.2 h in assay [28].

B13: 5T4 9-mer peptide 86 APSPLVELI (peptide)
peptide: APSPLVELI
notes: also called Peptide No 86
With B13, the t½ half life in [29] came to 1.6 h.

B14: 5T4 9-mer peptide 137 LHNGTLAEL (peptide)
peptide: LHNGTLAEL
notes: also called Peptide No 137
With B14, the t½ half life came out at 4.2 h in assay [30] and 0.3 h in assay [31].

B15: 5T4 9-mer peptide 84 ASVSAPSPL (peptide)
peptide: ASVSAPSPL
notes: also called Peptide No 84
Regarding B15, the t½ half life in [32] worked out at 6 min; in assay [33], 0.4 h.

B16: 5T4 9-mer peptide 113 LPRDVLAQL (peptide)
peptide: LPRDVLAQL
As for B16, the t½ half life in assay [34] is 3.3 h.

B17: 5T4 9-mer peptide 101 AALLAGRAL (peptide)
peptide: AALLAGRAL
On to B17, for which the t½ half life in assay [35] was 1.6 h; in assay [36], 1.9 h.

B18: 5T4 9-mer peptide 100 VVAALLAGR (peptide)
peptide: VVAALLAGR
notes: also called Peptide No 100
B18: in assay [37], the t½ half life turned out to be 8.1 h.

B19: 5T4 9-mer peptide 126 YVSFRNLTH (peptide)
peptide: YVSFRNLTH
notes: also called Peptide No 126
As for B19, the results for the t½ half life in [38] and in assay [17] were 2.6 h and 0.9 h, respectively.

B20: 5T4 9-mer peptide 104 RALQGLRRL (peptide)
peptide: RALQGLRRL
On to B20, for which the t½ half life in assay [39] amounted to 0.4 h; in [40], 6 min; in [41], 0.6 h.
